Experimental data: paper PMC9061753, “Mre11-Rad50 oligomerization promotes DNA double-strand break repair” (Nature Communications, 2022)

Legend:
Mre11-Rad50 (MRwt) [1] = target: T1, Mre11-Rad50 (MRwt) (S. cerevisiae, UniProt P32829;P12753 1-692;1-1312); test: EMSA; ATPgS, 5 mM Mg2+, 30 mM NaCl; mean of the 2 visible of 3 replicates (4.948, 4.099); apparent; Oligo EMSA: 25 mM Tris acetate pH 7.5, 1 mM DTT, 0.25 mg/ml BSA, 5 mM Mg acetate, 1 mM ATPgS, 30 mM NaCl, 30 C 15 min, 100 nM bp DNA; plasmid EMSA: 80 mM KCl, plus 1 mM MnCl2, 30 C 1 h; mass photometry 25 mM KCl; conditions: protein: recombinant; tags: Mre11-6xHis; Rad50 untagged; chain copies: 2;2; label: 3'-32P on top strand; 1-nt 5' overhangs as printed
Mre11-Rad50 (MRwt) [2] = target: T1, Mre11-Rad50 (MRwt); test: EMSA; ATPgS, 5 mM Mg2+, 30 mM NaCl; mean of the 2 visible of 3 replicates (6.248, 7.406); apparent; Oligo EMSA: 25 mM Tris acetate pH 7.5, 1 mM DTT, 0.25 mg/ml BSA, 5 mM Mg acetate, 1 mM ATPgS, 30 mM NaCl, 30 C 15 min, 100 nM bp DNA; plasmid EMSA: 80 mM KCl, plus 1 mM MnCl2, 30 C 1 h; mass photometry 25 mM KCl; conditions: protein: recombinant; tags: Mre11-6xHis; Rad50 untagged; chain copies: 2;2; label: 3'-32P on BIO100C; blunt before 3' labeling

T1 sequence (P32829 whole entry, chain 1 of 2): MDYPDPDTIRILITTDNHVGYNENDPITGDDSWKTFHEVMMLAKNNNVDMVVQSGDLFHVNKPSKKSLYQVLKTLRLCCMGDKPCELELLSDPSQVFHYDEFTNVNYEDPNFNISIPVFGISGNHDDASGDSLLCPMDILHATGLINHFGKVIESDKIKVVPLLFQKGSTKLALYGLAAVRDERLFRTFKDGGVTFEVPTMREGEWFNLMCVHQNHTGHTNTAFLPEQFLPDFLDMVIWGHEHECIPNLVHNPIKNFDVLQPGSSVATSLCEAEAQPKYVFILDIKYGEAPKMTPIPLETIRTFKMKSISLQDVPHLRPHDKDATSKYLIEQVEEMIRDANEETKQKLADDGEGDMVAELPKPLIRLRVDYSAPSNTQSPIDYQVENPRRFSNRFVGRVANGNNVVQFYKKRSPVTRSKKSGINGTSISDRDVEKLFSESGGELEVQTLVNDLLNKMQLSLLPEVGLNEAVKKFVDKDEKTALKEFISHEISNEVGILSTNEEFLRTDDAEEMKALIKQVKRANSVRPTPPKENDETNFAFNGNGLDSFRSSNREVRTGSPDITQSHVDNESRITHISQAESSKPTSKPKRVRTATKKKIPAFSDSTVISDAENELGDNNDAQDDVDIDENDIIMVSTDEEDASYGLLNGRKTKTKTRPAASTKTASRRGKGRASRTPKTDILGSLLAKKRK
T1 sequence (P12753 whole entry, chain 2 of 2): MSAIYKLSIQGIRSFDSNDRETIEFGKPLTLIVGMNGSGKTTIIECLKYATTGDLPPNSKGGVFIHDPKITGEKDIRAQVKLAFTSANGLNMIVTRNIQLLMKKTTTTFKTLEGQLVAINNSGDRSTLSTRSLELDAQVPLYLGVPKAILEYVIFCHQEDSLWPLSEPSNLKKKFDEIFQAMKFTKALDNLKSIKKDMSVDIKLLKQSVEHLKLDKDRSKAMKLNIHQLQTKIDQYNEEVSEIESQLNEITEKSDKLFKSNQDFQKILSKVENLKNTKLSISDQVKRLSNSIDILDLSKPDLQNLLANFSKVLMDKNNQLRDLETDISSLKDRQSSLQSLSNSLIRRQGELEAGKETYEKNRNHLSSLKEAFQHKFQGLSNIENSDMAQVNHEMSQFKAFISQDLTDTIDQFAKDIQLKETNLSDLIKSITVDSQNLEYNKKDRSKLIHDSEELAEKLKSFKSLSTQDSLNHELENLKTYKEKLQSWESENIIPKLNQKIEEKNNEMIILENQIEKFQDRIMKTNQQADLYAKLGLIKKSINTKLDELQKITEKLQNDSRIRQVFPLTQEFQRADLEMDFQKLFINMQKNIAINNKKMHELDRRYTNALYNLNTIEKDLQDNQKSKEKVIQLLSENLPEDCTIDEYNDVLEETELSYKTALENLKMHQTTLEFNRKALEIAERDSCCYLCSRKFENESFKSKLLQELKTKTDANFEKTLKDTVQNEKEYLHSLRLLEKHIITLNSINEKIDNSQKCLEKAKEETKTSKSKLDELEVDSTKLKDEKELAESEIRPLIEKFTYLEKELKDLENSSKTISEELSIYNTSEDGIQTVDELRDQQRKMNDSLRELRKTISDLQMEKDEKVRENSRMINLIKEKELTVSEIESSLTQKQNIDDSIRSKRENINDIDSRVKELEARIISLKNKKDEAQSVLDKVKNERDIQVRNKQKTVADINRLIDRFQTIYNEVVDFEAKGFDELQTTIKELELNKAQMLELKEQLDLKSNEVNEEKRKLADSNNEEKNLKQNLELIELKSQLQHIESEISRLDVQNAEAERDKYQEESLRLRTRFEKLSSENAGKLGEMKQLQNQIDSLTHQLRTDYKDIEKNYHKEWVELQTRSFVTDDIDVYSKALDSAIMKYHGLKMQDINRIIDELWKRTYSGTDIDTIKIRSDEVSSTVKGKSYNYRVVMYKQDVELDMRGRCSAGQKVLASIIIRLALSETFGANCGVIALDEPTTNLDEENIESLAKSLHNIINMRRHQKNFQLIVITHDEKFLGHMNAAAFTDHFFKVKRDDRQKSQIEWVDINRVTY

B1: 197 bp EMSA (197mer) (dsDNA)
DNA 1: GCTTCGTATGTTTCTCCTGCTTATCACCTTCTTGAAGGCTTCCCATTCATTCAGGAACCGCCTTCTGGTGATTTGCAAGAACGCGTACTTATTCGCCACCATGATTATGACCAGTGTTTCCAGTCCGTTCAGTTGTTGCAGTGGAATAGTCAGGTTAAATTTAATGTGACCGTTTATCGCAATCTGCCGACCACTCG
DNA 2: GCGAGTGGTCGGCAGATTGCGATAAACGGTCACATTAAATTTAACCTGACTATTCCACTGCAACAACTGAACGGACTGGAAACACTGGTCATAATCATGGTGGCGAATAAGTACGCGTTCTTGCAAATCACCAGAAGGCGGTTCCTGAATGAATGGGAAGCCTTCAAGAAGGTGATAAGCAGGAGAAACATACGAAG
- Kd (Mre11-Rad50 (MRwt) [1]): ~4.52 nM

B2: 100 bp EMSA (BIO100C/BIO100) (dsDNA)
DNA 1: GATGCAGGAGGCTGCTACGACCATGGCAGAAGATTATGAGGTGGAGTACGCGCCCGGGGAGCCCAAGGGCACGCCCTGGCACCCGCACCGCGGCACTTAC
DNA 2: GTAAGTGCCGCGGTGCGGGTGCCAGGGCGTGCCCTTGGGCTCCCCGGGCGCGTACTCCACCTCATAATCTTCTGCCATGGTCGTAGCAGCCTCCTGCATC
modifications: biotin position marked in table
- Kd (Mre11-Rad50 (MRwt) [2]): ~6.83 nM
